Measured values: article PMC4495402 (Genes & Development, 2015)

Molecular target: Xenopus histone H3/H4 tetramer (Xenopus, UniProt P84233 21-136; P62799 17-103)
Assay: ITC

**Q.** Which results are given for ALRYMESSWKEQQKEEAKSLRLGMQEDLEEMRREEEEMQRRRAKKLKRR (domain or fragment) [hSpt2C (637–685) composed of only αC2]?
**A.** Kd: 2.3 µM; dH: -38.9 kcal/mol

**Q.** For EPQEEISKHIREIFGYDRKKYKDESDYALRYMESS (domain or fragment) [hSpt2C (610–644) composed of only αC1], which Kd is on record?
**A.** Its Kd is 55.6 µM.

**Q.** And the dH?
**A.** Its dH is -9.2 kcal/mol.

B1: yeast ySpt2C(259–333) (domain or fragment)
chain: PGYDRDEIWAMFNRGKKRSEYDYDELEDDDMEANEMEILEEEEMARKMARLEDKREEAWLKKHEEEKRRRKKGIR
**Q.** With B1 as the binder, how does the dH read?
**A.** The dH was -19.2 kcal/mol.
